Data reported in PMC5725494, “Cell cycle-dependent phosphorylation regulates RECQL4 pathway choice and ubiquitination in DNA double-strand break repair”.
Where a chain is given by its changes, count along the chain named.

Legend:
Test in all cases: EMSA; 25 or 50 nM protein, 0.5 nM DNA; 5 mM MnCl2, no ATP; 25 mM HEPES pH 7.4, 5 mM MnCl2, 1 mM DTT, 100 ng/mL BSA, 5% glycerol, no ATP; 10 min at 37 °C; 10% native PAGE
Conditions in all cases: protein: recombinant; tags: 3xFLAG; label: 5'-32P on Mix3-19 (S13); fork: 19 bp duplex with 5' T15 arm (strand 1) and 3' T15 arm (strand 2)
RECQL4 RQ4-2D = molecular target: T1, RECQL4 RQ4-2D (UniProt O94761 1-1208, S89D;S251D)
T1 sequence: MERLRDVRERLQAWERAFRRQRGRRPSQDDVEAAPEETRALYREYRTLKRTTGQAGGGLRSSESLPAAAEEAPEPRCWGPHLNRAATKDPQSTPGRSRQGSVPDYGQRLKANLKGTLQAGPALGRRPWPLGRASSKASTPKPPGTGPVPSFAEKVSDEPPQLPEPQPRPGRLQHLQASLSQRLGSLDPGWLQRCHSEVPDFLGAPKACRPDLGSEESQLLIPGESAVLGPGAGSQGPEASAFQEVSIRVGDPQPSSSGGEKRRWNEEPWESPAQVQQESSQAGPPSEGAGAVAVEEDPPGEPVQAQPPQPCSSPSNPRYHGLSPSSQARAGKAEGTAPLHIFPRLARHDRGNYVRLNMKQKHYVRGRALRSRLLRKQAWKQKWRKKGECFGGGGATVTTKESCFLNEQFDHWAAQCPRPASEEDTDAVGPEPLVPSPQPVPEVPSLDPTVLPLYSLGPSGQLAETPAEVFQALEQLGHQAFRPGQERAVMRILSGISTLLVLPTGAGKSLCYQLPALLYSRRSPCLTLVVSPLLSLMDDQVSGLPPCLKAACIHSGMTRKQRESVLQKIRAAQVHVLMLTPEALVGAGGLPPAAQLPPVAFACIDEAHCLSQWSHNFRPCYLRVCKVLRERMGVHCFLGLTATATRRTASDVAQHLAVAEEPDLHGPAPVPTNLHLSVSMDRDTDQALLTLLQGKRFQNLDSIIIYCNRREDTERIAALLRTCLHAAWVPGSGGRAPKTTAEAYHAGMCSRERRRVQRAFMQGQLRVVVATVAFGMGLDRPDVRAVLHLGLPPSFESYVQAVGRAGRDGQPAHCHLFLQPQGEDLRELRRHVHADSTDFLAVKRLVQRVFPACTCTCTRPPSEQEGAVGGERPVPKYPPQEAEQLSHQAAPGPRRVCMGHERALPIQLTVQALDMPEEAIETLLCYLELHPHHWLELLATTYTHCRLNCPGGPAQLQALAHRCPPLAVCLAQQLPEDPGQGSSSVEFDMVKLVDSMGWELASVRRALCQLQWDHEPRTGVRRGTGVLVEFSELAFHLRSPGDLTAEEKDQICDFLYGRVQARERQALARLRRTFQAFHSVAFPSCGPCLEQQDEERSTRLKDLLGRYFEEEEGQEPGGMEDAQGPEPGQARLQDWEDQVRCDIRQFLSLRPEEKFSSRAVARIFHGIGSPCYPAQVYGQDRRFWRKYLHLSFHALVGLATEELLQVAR

RECQL4 WT (RQ4Wt) = molecular target: T2, RECQL4 WT (RQ4Wt) (UniProt O94761 1-1208)
T2 sequence: T1 sequence with D89S, D251S

RECQL4 RQ4-2A = molecular target: T3, RECQL4 RQ4-2A (UniProt O94761 1-1208, S89A;S251A)
T3 sequence: T1 sequence with D89A, D251A

Measured: binding signal

B1: Mix3/4-19 Y-shaped duplex (dsDNA)
DNA 1: TTTTTTTTTTTTTTTGAGTGTGGTGTACATGCAC
DNA 2: GTGCATGTACACCACACTCTTTTTTTTTTTTTTT
~40 % DNA shifted: all assays above
